Patent US20220363778A1 (RESEARCH FOUNDATION FOR THE STATE UNIVERSITY OF NEW YORK, published 2022)

Legend:
[1] = biological target: T1, HER2-Fc (Sino Biological, 10004-H02H) (UniProt P04626 23-652); assay: SPR, HER2-Fc immobilised, 1:1 Langmuir fit
T1 construct: Bought reagent, immobilised on a carboxymethyl dextran SPR chip by EDC/NHS; not shown: Fc portion of the bought reagent

[2] = biological target: T2, mouse serum albumin (MSA) (MyBioSource, MBS135633) (mouse, UniProt P07724 25-608, limits assumed); assay: SPR, mouse serum albumin immobilised on the chip, 2Rb17c-ColH-ABD injected at 7.5-75 nM, 10 min dissociation, 1:1 Langmuir fit in Scrubber
T2 construct: Immobilised on the SPR chip for kinetics
Method: (§1) Surface plasmon resonance (SPR) was performed using a Reichert SR7500DC SPR and SR8100 autosampler (Reichert, Depew, N.Y.). HER2-Fc (Sino Biological, Beijing, China, 10004-H02H) or mouse serum albumin (MSA) (MyBioSource, San Diego, Calif., MBS135633) was immobilized onto a carboxymethyl dextran SPR chip (Reichert, Depew, N.Y., 13206066) using 1-Ethyl-3-(3-dimethylaminopropyl)carbodiimide/N-hydroxysuccinimide linker chemistry. A mobile phase of PBS 0.05% Tween-20 at a flow rate of 25 μL/min was used for all binding evaluations. Fusion protein dilutions were injected for 90 seconds, and the chip regenerated following dissociation with a 2-minute injection of a 10 millimolar (mM) glycine buffer pH 1.5. […] The observed sensor-grams were fit to a 1:1 Langmuir binding model in the Scrubber analysis software to obtain the association rate constant (kon), dissociation rate constant (koff), and the equilibrium dissociation constant (KD).

[3] = biological target: T2, mouse serum albumin (MSA) (MyBioSource, …); assay: SPR, mouse serum albumin immobilised on the chip, 2Rs15d-ColH-ABD injected at 7.5-60 nM, 10 min dissociation, 1:1 Langmuir fit in Scrubber
Method: as §1

[4] = biological target: T2, mouse serum albumin (MSA) (MyBioSource, …); assay: SPR, mouse serum albumin injected at about 400 s over 2Rs15d-ColH held on a HER2-Fc chip
Text: Surface plasmon resonance was used to assess HER2 and MSA binding.

B1: 2Rb17c-ColH-ABD fusion protein (other)
chain: QVQLQESGGGLVQPGGSLRLSCAASGFIFSNDAMTWVRQAPGKGLEWVSSINWSGTHTNYADSVKGRFTISRDNAKRTLYLQMNSLKDEDTALYYCVTGYGVTKTPTGQGTQVTVSSGGGSGGGSGGGSVQNESKRYTVSYLKTLNYYDLVDLLVKTEIENLPDLFQYSSDAKEFYGNKTRMSFIMDEIGRRAPQYTEIDHKGIPTLVEVVRAGFYLGFHNKELNEINKRSFKERVIPSILAIQKNPNFKLGTEVQDKIVSATGLLAGNETAPPEVVNNFTPILQDCIKNIDRYALDDLKSKALFNVLAAPTYDITEYLRATKEKPENTPWYGKIDGFINELKKLALYGKINDNNSWIIDNGIYHIAPLGKLHSNNKIGIETLTEVMKVYPYLSMQHLQSADQIKRHYDSKDAEGNKIPLDKFKKEGKEKYCPKTYTFDDGKVIIKAGARVEEEKVKRLYWASKEVNSQFFRVYGIDKPLEEGNPDDILTMVIYNSPEEYKLNSVLYGYDTNNGGMYIEPEGTFFTYEREAQESTYTLEELFRHEYTHYLQGRYAVPGQWGRTKLYDNDRLTWYEEGGAELFAGSTRTSGILPRKSIVSNIHNTTRNNRYKLSDTVHSKYGASFEFYNYACMFMDYMYNKDMGILNKLNDLAKNNDVDGYDNYIRDLSSNYALNDKYQDHMQERIDNYENLTVPFVADDYLVRHAYKNPNEIYSEISEVAKLKDAKSEVKKSQYFSTFTLRGSYTGGASKGKLEDQKAMNKFIDDSLKKLDTYSWSGYKTLTAYFTNYKVDSSNRVTYDVVFHGYLPNEGDSKNSLPYGKINGTYKGTEKEKIKFSSEGSFDPDGKIVSYEWDFGDGNKSNEENPEHSYDKVGTYTVKLKVTDDKGESSVSTTTAEIKDLSENKLPVIYMHVPKSGALNQKVVFYGKGTYDPDGSIAGYQWDFGDGSDFSSEQNPSHVYTKKGEYTVTLRVMDSSGQMSEKTMKIKITDPVYPIGTEKEPNNSKETASGPIVPGIPVSGTIENTSDQDYFYFDVITPGEVKIDINKLGYGGATWVVYDENNNAVSYATDDGQNLSGKFKADKPGRYYIHLYMFNGSYMPYRINIEGGGSGGGSLEVLFQGPGGGSLAEAKVLANRELDKYGVSDFYKRLINKAKTVEGVEALKLHILAALPHHHHHH
Binder B1 has a Kd [1] of 17.1 nM and a Kd [2] of 1.6 nM.

B2: 2Rs15d-ColH-ABD fusion protein (other)
chain: QVQLQESGGGSVQAGGSLKLTCAASGYIFNSCGMGWYRQSPGRERELVSRISGDGDTWHKESVKGRFTISQDNVKKTLYLQMNSLKPEDTAVYFCAVCYNLETYWGQGTQVTVSSGGGSGGGSGGGSVQNESKRYTVSYLKTLNYYDLVDLLVKTEIENLPDLFQYSSDAKEFYGNKTRMSFIMDEIGRRAPQYTEIDHKGIPTLVEVVRAGFYLGFHNKELNEINKRSFKERVIPSILAIQKNPNFKLGTEVQDKIVSATGLLAGNETAPPEVVNNFTPILQDCIKNIDRYALDDLKSKALFNVLAAPTYDITEYLRATKEKPENTPWYGKIDGFINELKKLALYGKINDNNSWIIDNGIYHIAPLGKLHSNNKIGIETLTEVMKVYPYLSMQHLQSADQIKRHYDSKDAEGNKIPLDKFKKEGKEKYCPKTYTFDDGKVIIKAGARVEEEKVKRLYWASKEVNSQFFRVYGIDKPLEEGNPDDILTMVIYNSPEEYKLNSVLYGYDTNNGGMYIEPEGTFFTYEREAQESTYTLEELFRHEYTHYLQGRYAVPGQWGRTKLYDNDRLTWYEEGGAELFAGSTRTSGILPRKSIVSNIHNTTRNNRYKLSDTVHSKYGASFEFYNYACMFMDYMYNKDMGILNKLNDLAKNNDVDGYDNYIRDLSSNYALNDKYQDHMQERIDNYENLTVPFVADDYLVRHAYKNPNEIYSEISEVAKLKDAKSEVKKSQYFSTFTLRGSYTGGASKGKLEDQKAMNKFIDDSLKKLDTYSWSGYKTLTAYFTNYKVDSSNRVTYDVVFHGYLPNEGDSKNSLPYGKINGTYKGTEKEKIKFSSEGSFDPDGKIVSYEWDFGDGNKSNEENPEHSYDKVGTYTVKLKVTDDKGESSVSTTTAEIKDLSENKLPVIYMHVPKSGALNQKVVFYGKGTYDPDGSIAGYQWDFGDGSDFSSEQNPSHVYTKKGEYTVTLRVMDSSGQMSEKTMKIKITDPVYPIGTEKEPNNSKETASGPIVPGIPVSGTIENTSDQDYFYFDVITPGEVKIDINKLGYGGATWVVYDENNNAVSYATDDGQNLSGKFKADKPGRYYIHLYMFNGSYMPYRINIEGGGSGGGSLEVLFQGPGGGSLAEAKVLANRELDKYGVSDFYKRLINKAKTVEGVEALKLHILAALPHHHHHH
notes: The text says (G4S)3 linkers and a TEV site; also called 2Rs15d-ColH-ABD035
In the case of B2, the Kd [3] is reported as 1.5 nM.

B3: 2Rs15d-ColH fusion protein (2Rs15d-Clostridial Collagenase H fusion protein) (other)
chain: QVQLQESGGGSVQAGGSLKLTCAASGYIFNSCGMGWYRQSPGRERELVSRISGDGDTWHKESVKGRFTISQDNVKKTLYLQMNSLKPEDTAVYFCAVCYNLETYWGQGTQVTVSSGGGGSGGGGSGGGGSVQNESKRYTVSYLKTLNYYDLVDLLVKTEIENLPDLFQYSSDAKEFYGNKTRMSFIMDEIGRRAPQYTEIDHKGIPTLVEVVRAGFYLGFHNKELNEINKRSFKERVIPSILAIQKNPNFKLGTEVQDKIVSATGLLAGNETAPPEVVNNFTPILQDCIKNIDRYALDDLKSKALFNVLAAPTYDITEYLRATKEKPENTPWYGKIDGFINELKKLALYGKINDNNSWIIDNGIYHIAPLGKLHSNNKIGIETLTEVMKVYPYLSMQHLQSADQIKRHYDSKDAEGNKIPLDKFKKEGKEKYCPKTYTFDDGKVIIKAGARVEEEKVKRLYWASKEVNSQFFRVYGIDKPLEEGNPDDILTMVIYNSPEEYKLNSVLYGYDTNNGGMYIEPEGTFFTYEREAQESTYTLEELFRHEYTHYLQGRYAVPGQWGRTKLYDNDRLTWYEEGGAELFAGSTRTSGILPRKSIVSNIHNTTRNNRYKLSDTVHSKYGASFEFYNYACMFMDYMYNKDMGILNKLNDLAKNNDVDGYDNYIRDLSSNYALNDKYQDHMQERIDNYENLTVPFVADDYLVRHAYKNPNEIYSEISEVAKLKDAKSEVKKSQYFSTFTLRGSYTGGASKGKLEDQKAMNKFIDDSLKKLDTYSWSGYKTLTAYFTNYKVDSSNRVTYDVVFHGYLPNEGDSKNSLPYGKINGTYKGTEKEKIKFSSEGSFDPDGKIVSYEWDFGDGNKSNEENPEHSYDKVGTYTVKLKVTDDKGESSVSTTTAEIKDLSENKLPVIYMHVPKSGALNQKVVFYGKGTYDPDGSIAGYQWDFGDGSDFSSEQNPSHVYTKKGEYTVTLRVMDSSGQMSEKTMKIKITDPVYPIGTEKEPNNSKETASGPIVPGIPVSGTIENTSDQDYFYFDVITPGEVKIDINKLGYGGATWVVYDENNNAVSYATDDGQNLSGKFKADKPGRYYIHLYMFNGSYMPYRINIELEHHHHHH
notes: Fusion of a VHH (sdAb), a linker, Clostridium collagenase H and a His6 tag, expressed in E. coli SHuffle; also called targeted collagenase; anti-HER2-collagenase fusion protein
B3: no binding [4].
